Results on 52 molecules are retold here after article PMC4072508, “Genome-Wide Prediction and Validation of Peptides That Bind Human Prosurvival Bcl-2 Proteins” (PLoS Computational Biology, 2014).

The target of the test is Bcl-xL, Q07817. The experiment in a line: peptide SPOT array, c-Myc-tagged receptor at 1 uM or 100 nM, anti-c-Myc-Cy3.
Bcl-xL, Q07817, sequence (Q07817 1-209): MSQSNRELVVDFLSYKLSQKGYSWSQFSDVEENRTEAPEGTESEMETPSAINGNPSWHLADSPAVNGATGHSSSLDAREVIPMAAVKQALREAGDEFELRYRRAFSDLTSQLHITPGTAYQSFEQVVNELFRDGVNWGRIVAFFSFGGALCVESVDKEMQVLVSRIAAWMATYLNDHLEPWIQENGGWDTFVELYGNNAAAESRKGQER

B1: TNKS (peptide)
chain: HPKRKQVTELDLRKGANVNEKNKDFM
The molecule B1 had an SPOT signal as a fraction of Bim BH3's signal on the same receptor and array of 0.38.

B2: C12orf48 (peptide)
chain: QNSRDPFCKAIEEVAQDLDLRIKNII
B2: the SPOT signal as a fraction of Bim BH3's signal on the same receptor and array was 0.03.

B3: USP36 (peptide)
chain: HRTSNVLTLSDKRFANFSGGKITKDV
On to B3, for which the SPOT signal as a fraction of Bim BH3's signal on the same receptor and array came to 1.11.

B4: MURC (peptide)
chain: RERLRQSGERLRQSGERLRQSGERFK
B4 showed an SPOT signal as a fraction of Bim BH3's signal on the same receptor and array of 0.55.

B5: MRS2 (peptide)
chain: LENYYRLADDLSNAARELRVLIDDSQ
In turn, B5 gave an SPOT signal as a fraction of Bim BH3's signal on the same receptor and array of 0.03.

B6: TLR5 (peptide)
chain: PEDLQDVGWFDHKLSQQILKKEKEKK
The molecule B6 had an SPOT signal as a fraction of Bim BH3's signal on the same receptor and array of 0.05.

B7: TUBB4Q (peptide)
chain: FTGNNTAVQELKRVLEQFTATFRRKA
With B7, the SPOT signal as a fraction of Bim BH3's signal on the same receptor and array came to 0.7.

B8: TDRD6 (peptide)
chain: HCQLRSVSQEIHRLSESMAQVYRGST
B8 had an SPOT signal as a fraction of Bim BH3's signal on the same receptor and array of 0.04.

B9: LRRC41 (peptide)
chain: PDGLLEFAKRLERWGRGAFGHLRLFQ
Molecule B9 gave an SPOT signal as a fraction of Bim BH3's signal on the same receptor and array of 0.46.

B10: RIMBP3 (peptide)
chain: RAELTGLARRLADRLRKLQETNLRAV
B10 came in with an SPOT signal as a fraction of Bim BH3's signal on the same receptor and array of 0.39.

B11: PPIL6 (peptide)
chain: NGQFLGDALDLQKWAHEVWDIVDIKP
For B11, the SPOT signal as a fraction of Bim BH3's signal on the same receptor and array is 0.03.

B12: EPS8 (peptide)
chain: LDDIEFFITKLQKAAEAFSELSKRKK
Turning to B12, the SPOT signal as a fraction of Bim BH3's signal on the same receptor and array was 0.13.

B13: MYH2 (peptide)
chain: SRELEEISERLEEAGGATSAQIEMNK
B13 gave an SPOT signal as a fraction of Bim BH3's signal on the same receptor and array of 0.02.

B14: ARHGAP4 (peptide)
chain: EVLAGPLAQRDSHIAEDVGRLVKKSR
As to B14, the SPOT signal as a fraction of Bim BH3's signal on the same receptor and array worked out at 0.04.

B15: TLR6 (peptide)
chain: TCELREFVKNIDQVSSEVLEGWPDSY
The molecule B15 came in with an SPOT signal as a fraction of Bim BH3's signal on the same receptor and array of 0.02.

B16: NAALAD2 (peptide)
chain: PFNIQDYAEALKNYAASIYNLSKKHD
As to B16, the SPOT signal as a fraction of Bim BH3's signal on the same receptor and array was 0.05.

B17: PLEKHG4 (peptide)
chain: IQRMGKYALLLQELARACGGPTQELS
Molecule B17 returned an SPOT signal as a fraction of Bim BH3's signal on the same receptor and array of 0.08.

B18: VWA3B (peptide)
chain: LARIRRRIKWLQDGSQSLFGRLHNDC
As for B18, the SPOT signal as a fraction of Bim BH3's signal on the same receptor and array is 0.56.

B19: ABCA13 (peptide)
chain: VDKLKTLSETLLEMSSLFQRSGSGQM
B19 showed an SPOT signal as a fraction of Bim BH3's signal on the same receptor and array of 0.03.

B20: PCIF1 (peptide)
chain: KDSVEGICSKIYHISLEYVKRIREKH
Molecule B20 gave an SPOT signal as a fraction of Bim BH3's signal on the same receptor and array of 0.08.

B21: ANKRD32 (peptide)
chain: ESEVQHLSQKLYDWSDSQNLKITGKA
In turn, B21 returned an SPOT signal as a fraction of Bim BH3's signal on the same receptor and array of 0.03.

B22: FEM1A (peptide)
chain: YKGHREIARYLLEQLAQVNRRSAKGN
The molecule B22 yielded an SPOT signal as a fraction of Bim BH3's signal on the same receptor and array of 0.81.

B23: NUB1 (peptide)
chain: TDENKKVGLADKDLAKQYSDRLECCE
With B23, the SPOT signal as a fraction of Bim BH3's signal on the same receptor and array was determined as 0.02.

B24: GRIP1 (peptide)
chain: KFRHDEIISLLKNVGERVVLEVEYEL
In the case of B24, the SPOT signal as a fraction of Bim BH3's signal on the same receptor and array was 0.03.

B25: C6orf223 (peptide)
chain: RGRTRGWVQTLARMLRRTRGPVERAA
In the case of B25, the SPOT signal as a fraction of Bim BH3's signal on the same receptor and array was 0.66.

B26: SLC28A1 (peptide)
chain: SISLTPVAKGLENMGADFLESLEEGQ
B26: the SPOT signal as a fraction of Bim BH3's signal on the same receptor and array is 0.02.

B27: OTOF (peptide)
chain: DFMGRTFAKPDVKMADEAYCPPRFPP
With B27, the SPOT signal as a fraction of Bim BH3's signal on the same receptor and array came out at 0.03.

B28: MYO15A (peptide)
chain: YGRLRPRARSDSKASTAINWLTKKFL
As for B28, the SPOT signal as a fraction of Bim BH3's signal on the same receptor and array came to 1.49.

B29: MRPL41 (peptide)
chain: MGVLAAAARCLVRGLDRMSKWTSKRG
In turn, B29 returned an SPOT signal as a fraction of Bim BH3's signal on the same receptor and array of 0.42.

B30: KLHL15 (peptide)
chain: AGDVEGFCSSIHDTSVSAGFRALYEE
On to B30, for which the SPOT signal as a fraction of Bim BH3's signal on the same receptor and array was 0.02.

B31: LYZ (peptide)
chain: VFERCELARTDKRLGMDGYRGISLAN
As to B31, the SPOT signal as a fraction of Bim BH3's signal on the same receptor and array came out at 0.22.

B32: UNC13B (peptide)
chain: RRFAKTIGKVDMQYADILSKDFPAYC
The molecule B32 had an SPOT signal as a fraction of Bim BH3's signal on the same receptor and array of 0.45.

B33: HFM1 (peptide)
chain: NNDLSHIAGKLTYASQKYKNHIGTEI
With B33, the SPOT signal as a fraction of Bim BH3's signal on the same receptor and array was 0.12.

B34: IL31 (peptide)
chain: SDDVQKIVEELQSLSKMLLKDVEEEK
B34 registered an SPOT signal as a fraction of Bim BH3's signal on the same receptor and array of 0.03.

B35: INCA1 (peptide)
chain: DQEEACASRQDHSLASFSTVTARRNP
B35 gave an SPOT signal as a fraction of Bim BH3's signal on the same receptor and array of 0.04.

B36: C10orf79 (peptide)
chain: EQKVKQKAADLLEMATFLQKRVEEEE
On to B36, for which the SPOT signal as a fraction of Bim BH3's signal on the same receptor and array was 0.02.

B37: USP36 (peptide)
chain: AIKPVSFIRDLKKILRHFRFGNQEDA
Molecule B37 gave an SPOT signal as a fraction of Bim BH3's signal on the same receptor and array of 0.42.

B38: USP36 (peptide)
chain: HRTSNVLTLSLKRFLNFSGGKITKDV
Take B38: the SPOT signal as a fraction of Bim BH3's signal on the same receptor and array came out at 0.35.

B39: MYH6 (peptide)
chain: KANLEKVSRTLEDQANEYRVKLEEAQ
B39: the SPOT signal as a fraction of Bim BH3's signal on the same receptor and array was found to be 0.02.

B40: NLRP1 (peptide)
chain: LKELDLSGNSLSHSLVKSLCKTLRRP
Molecule B40 came in with an SPOT signal as a fraction of Bim BH3's signal on the same receptor and array of 0.28.

B41: MED17 (peptide)
chain: ELLRLRQHWKDRKVGDKILGDLSYRS
The molecule B41 showed an SPOT signal as a fraction of Bim BH3's signal on the same receptor and array of 1.2.

B42: JAKMIP2 (peptide)
chain: DVNIPDLIKQLDILGDNGNLRNEEQV
In turn, B42 showed an SPOT signal as a fraction of Bim BH3's signal on the same receptor and array of 0.02.

B43: INCA1 (peptide)
chain: DQEEACASRQLHSLLSFSTVTARRNP
Molecule B43 yielded an SPOT signal as a fraction of Bim BH3's signal on the same receptor and array of 0.1.

B44: NUP210 (peptide)
chain: VKAVDPTSGQLYGLARELSDEIQVQV
As to B44, the SPOT signal as a fraction of Bim BH3's signal on the same receptor and array turned out to be 0.02.

B45: TNKS (peptide)
chain: HPKRKQVTELLLRKLANVNEKNKDFM
For B45, the SPOT signal as a fraction of Bim BH3's signal on the same receptor and array is 0.43.

B46: ZNFX1 (peptide)
chain: HERCQQPCKRLLICSHKCQEPCIGEC
B46: the SPOT signal as a fraction of Bim BH3's signal on the same receptor and array was determined as 0.03.

B47: KIAA0430 (peptide)
chain: NKDGKSVSNRLRRLLDNCGGKVLSIT
The molecule B47 displayed an SPOT signal as a fraction of Bim BH3's signal on the same receptor and array of 0.33.

B48: RP1L1 (peptide)
chain: HRNTRNLAAFLGKALDLLRFPVKQLY
Consider B48, for which the SPOT signal as a fraction of Bim BH3's signal on the same receptor and array was 0.47.

B49: UPF2 (peptide)
chain: LFRIRLVCTILDTCGQYFDRGSSKRK
As for B49, the SPOT signal as a fraction of Bim BH3's signal on the same receptor and array was 0.24.

B50: MED17 (peptide)
chain: ELLRLRQHWKLRKVLDKILGDLSYRS
The molecule B50 came in with an SPOT signal as a fraction of Bim BH3's signal on the same receptor and array of 0.46.

B51: C8orf37 (peptide)
chain: TNISWRACDHDRCIACDFLVVSYDDY
As for B51, the SPOT signal as a fraction of Bim BH3's signal on the same receptor and array was 0.03.

B52: PANK1 (peptide)
chain: FLRINMVSMKLLAYAMDFWSKGQLKA
As to B52, the SPOT signal as a fraction of Bim BH3's signal on the same receptor and array amounted to 0.11.
